From publication PMC13418256

Molecular target: human TLR5 (human) (UniProt O60602)
Chain of UniProt O60602 (O60602 21-858): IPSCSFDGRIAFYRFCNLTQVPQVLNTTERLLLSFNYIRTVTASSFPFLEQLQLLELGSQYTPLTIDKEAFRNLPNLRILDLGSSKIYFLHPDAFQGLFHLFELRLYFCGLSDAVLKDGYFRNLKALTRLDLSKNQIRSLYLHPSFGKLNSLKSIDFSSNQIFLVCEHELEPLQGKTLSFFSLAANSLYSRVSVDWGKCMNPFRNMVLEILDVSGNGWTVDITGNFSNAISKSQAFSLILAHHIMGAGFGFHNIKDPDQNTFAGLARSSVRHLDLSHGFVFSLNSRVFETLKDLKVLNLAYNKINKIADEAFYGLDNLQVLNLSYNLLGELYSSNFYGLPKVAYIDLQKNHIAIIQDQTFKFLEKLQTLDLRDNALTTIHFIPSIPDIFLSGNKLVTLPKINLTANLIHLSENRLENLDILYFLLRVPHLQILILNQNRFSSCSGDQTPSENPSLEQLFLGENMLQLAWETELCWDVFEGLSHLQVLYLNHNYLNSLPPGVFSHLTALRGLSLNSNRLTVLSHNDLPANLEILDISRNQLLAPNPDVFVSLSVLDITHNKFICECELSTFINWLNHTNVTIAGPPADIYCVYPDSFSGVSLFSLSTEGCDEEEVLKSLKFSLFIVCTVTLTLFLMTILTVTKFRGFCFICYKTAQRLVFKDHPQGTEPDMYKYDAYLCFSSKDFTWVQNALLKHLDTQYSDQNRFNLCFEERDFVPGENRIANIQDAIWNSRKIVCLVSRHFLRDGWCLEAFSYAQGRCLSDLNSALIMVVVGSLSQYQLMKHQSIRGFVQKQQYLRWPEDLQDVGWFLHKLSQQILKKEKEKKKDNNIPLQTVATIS

Substance: Enterobacter sp. BIDMC93 host-encoded flagellin FliCH (natural protein)
- TLR5-driven NF-κB activation (SEAP colorimetric reporter) in HEK293T-Blue-hTLR5 cells stimulated with an Ent strain expressing only FliCH (ΔfliCP-tldR-gRNA), against the WT lysogenic strain (fold of the WT lysogenic strain): 2
